US20260209320A1

Assays:
[1] = biological target: T1, Peptide 23 (cyno); assay: peptide microarray; Sp C2; IgG 10 µg/ml
T1 sequence (peptide): QQQQQQQQQQPPPPP

[2] = biological target: T2, Peptide 27 (cyno); assay: peptide microarray; Sp C2; IgG 10 µg/ml
T2 sequence (peptide): PPPPPPPPPPPPQLP

[3] = biological target: T3, Peptide 5 (human); assay: peptide microarray; Sp H; IgG 10 µg/ml
T3 sequence (peptide): QQQPPPPPPPPPPPQ

[4] = biological target: T4, Peptide 19 (cyno); assay: peptide microarray; Sp C1; IgG 1 µg/ml
T4 sequence (peptide): PQAQPMLPQPQPPPP

[5] = biological target: T4, Peptide 19 (cyno); assay: peptide microarray; Sp C1; IgG 10 µg/ml
[6] = biological target: T5, Peptide 41 (mouse); assay: peptide microarray; Sp M; IgG 1 µg/ml
T5 sequence (peptide): PPQPPPQGQPPPPPP

[7] = biological target: T1, Peptide 23 (cyno); assay: peptide microarray; Sp C2; IgG 1 µg/ml
[8] = biological target: T2, Peptide 27 (cyno); assay: peptide microarray; Sp C2; IgG 1 µg/ml
[9] = biological target: T3, Peptide 5 (human); assay: peptide microarray; Sp H; IgG 1 µg/ml
[10] = biological target: T5, Peptide 41 (mouse); assay: peptide microarray; Sp M; IgG 10 µg/ml
[11] = biological target: T6, Peptide 14 (human, cyno); assay: peptide microarray; Sp C2; IgG 10 µg/ml
T6 sequence (peptide): PQPQPPPPPPPPPPG

[12] = biological target: T7, Peptide 15 (human, cyno); assay: peptide microarray; Sp C2; IgG 10 µg/ml
T7 sequence (peptide): QPQPPPPPPPPPPGP

[13] = biological target: T6, Peptide 14 (human, cyno); assay: peptide microarray; Sp H; IgG 10 µg/ml
[14] = biological target: T7, Peptide 15 (human, cyno); assay: peptide microarray; Sp H; IgG 10 µg/ml
[15] = biological target: T8, Peptide 6 (human); assay: peptide microarray; Sp H; IgG 10 µg/ml
T8 sequence (peptide): QQPPPPPPPPPPPQL

[16] = biological target: T9, Peptide 20 (cyno); assay: peptide microarray; Sp C1; IgG 1 µg/ml
T9 sequence (peptide): QAQPMLPQPQPPPPP

[17] = biological target: T9, Peptide 20 (cyno); assay: peptide microarray; Sp C1; IgG 10 µg/ml
[18] = biological target: T9, Peptide 20 (cyno); assay: peptide microarray; Sp C2 (first of two rows printed SEQ ID NO: 73); IgG 10 µg/ml
[19] = biological target: T6, Peptide 14 (human, cyno); assay: peptide microarray; Sp C2; IgG 1 µg/ml
[20] = biological target: T7, Peptide 15 (human, cyno); assay: peptide microarray; Sp C2; IgG 1 µg/ml
[21] = biological target: T9, Peptide 20 (cyno); assay: peptide microarray; Sp C2 (second of two rows printed SEQ ID NO: 73); IgG 1 µg/ml
[22] = biological target: T6, Peptide 14 (human, cyno); assay: peptide microarray; Sp H; IgG 1 µg/ml
[23] = biological target: T7, Peptide 15 (human, cyno); assay: peptide microarray; Sp H; IgG 1 µg/ml
[24] = biological target: T8, Peptide 6 (human); assay: peptide microarray; Sp H; IgG 1 µg/ml
[25] = biological target: T9, Peptide 20 (cyno); assay: peptide microarray; Sp C2 (first of two rows printed SEQ ID NO: 73); IgG 1 µg/ml
[26] = biological target: T9, Peptide 20 (cyno); assay: peptide microarray; Sp C2 (second of two rows printed SEQ ID NO: 73); IgG 10 µg/ml

B1: ATL_0005335 (antibody, V domains shown)
VH: EVQLVESGGGLVKPGGSLRLSCAASGFTFNKAWMNWVRQAPGKGLEWVGRIKSGIDGGTTDYAAPVQGRFTISRDDSKNTVYLQMNSLNTEDTAVYYCIPPPYYYYYGLDVWGQGTTVTVSS
VL: QSALTQPASVSGSPGQSITISCTGTSSDIGSYNLVSWYQQHPGNAPKPLIYEGSKRPSGVSARFSGSKSGNTASLTISGLQPEDEADYYCSSYAGFNTLVFGGGTKVTVL
corrected fluorescence intensity [1]: 524 | corrected fluorescence intensity [2]: 604 | corrected fluorescence intensity [3]: 593 | corrected fluorescence intensity [4]: 79 | corrected fluorescence intensity [5]: 453 | corrected fluorescence intensity [6]: 256 | corrected fluorescence intensity [7]: 0 | corrected fluorescence intensity [8]: 0 | corrected fluorescence intensity [9]: 0 | corrected fluorescence intensity [10]: 0

B2: ATL_0005331 (antibody, V domains shown)
VH: EVQLVESGGGLVKPGGSLRLSCAASGFTFNKAWMNWVRQAPGKGLEWVGRIKSGIDGGTTDYAAPVQGRFTISRDDSKNTVYLQMNSLNTEDTAVYYCIPPPYYYYYGLDVWGQGTTVTVSS
VL: QSALTQPRSVSGSPGQSITISCTGTSSDVGSYNLVSWFQQHPGKAPKLIIYEVNKRPSGVPDRFSGSKSGNTASLTVSGLQAEDEADYYCGSYAGTNNVFGTGTKLTVL
corrected fluorescence intensity [11]: 464 | corrected fluorescence intensity [12]: 478 | corrected fluorescence intensity [2]: 321 | corrected fluorescence intensity [3]: 382 | corrected fluorescence intensity [13]: 412 | corrected fluorescence intensity [14]: 382 | corrected fluorescence intensity [15]: 397 | corrected fluorescence intensity [16]: 178 | corrected fluorescence intensity [17]: 504 | corrected fluorescence intensity [18]: 0 | corrected fluorescence intensity [19]: 45.5 | corrected fluorescence intensity [20]: 50 | corrected fluorescence intensity [8]: 99.2 | corrected fluorescence intensity [21]: 51.5 | corrected fluorescence intensity [9]: 0 | corrected fluorescence intensity [22]: 84 | corrected fluorescence intensity [23]: 134 | corrected fluorescence intensity [24]: 0 | corrected fluorescence intensity [25]: 0 | corrected fluorescence intensity [26]: 0
